Results taken from patent US20250262210A1 (TRUSTEES OF COLUMBIA UNIVERSITY IN THE CITY OF NEW YORK, published 2025).

Legend:
Experiment in all cases: IP/MS, LZTR1 wild type-FLAG, U87
VPS13A = VPS13A (human, UniProt Q96RL7 1-3174, limits assumed)
Outline: (§1)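 Gel slices were reduced with 5 mM DTT, alkylated with 11 mM IAA and digested overnight at 37° C. with trypsin. Peptides were analysed on an Orbitrap Fusion Tribrid by LC-MS/MS.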

EMC1 = target: T1, EMC1 (human, UniProt Q8N766 23-993, limits assumed)
T1 sequence (looked up): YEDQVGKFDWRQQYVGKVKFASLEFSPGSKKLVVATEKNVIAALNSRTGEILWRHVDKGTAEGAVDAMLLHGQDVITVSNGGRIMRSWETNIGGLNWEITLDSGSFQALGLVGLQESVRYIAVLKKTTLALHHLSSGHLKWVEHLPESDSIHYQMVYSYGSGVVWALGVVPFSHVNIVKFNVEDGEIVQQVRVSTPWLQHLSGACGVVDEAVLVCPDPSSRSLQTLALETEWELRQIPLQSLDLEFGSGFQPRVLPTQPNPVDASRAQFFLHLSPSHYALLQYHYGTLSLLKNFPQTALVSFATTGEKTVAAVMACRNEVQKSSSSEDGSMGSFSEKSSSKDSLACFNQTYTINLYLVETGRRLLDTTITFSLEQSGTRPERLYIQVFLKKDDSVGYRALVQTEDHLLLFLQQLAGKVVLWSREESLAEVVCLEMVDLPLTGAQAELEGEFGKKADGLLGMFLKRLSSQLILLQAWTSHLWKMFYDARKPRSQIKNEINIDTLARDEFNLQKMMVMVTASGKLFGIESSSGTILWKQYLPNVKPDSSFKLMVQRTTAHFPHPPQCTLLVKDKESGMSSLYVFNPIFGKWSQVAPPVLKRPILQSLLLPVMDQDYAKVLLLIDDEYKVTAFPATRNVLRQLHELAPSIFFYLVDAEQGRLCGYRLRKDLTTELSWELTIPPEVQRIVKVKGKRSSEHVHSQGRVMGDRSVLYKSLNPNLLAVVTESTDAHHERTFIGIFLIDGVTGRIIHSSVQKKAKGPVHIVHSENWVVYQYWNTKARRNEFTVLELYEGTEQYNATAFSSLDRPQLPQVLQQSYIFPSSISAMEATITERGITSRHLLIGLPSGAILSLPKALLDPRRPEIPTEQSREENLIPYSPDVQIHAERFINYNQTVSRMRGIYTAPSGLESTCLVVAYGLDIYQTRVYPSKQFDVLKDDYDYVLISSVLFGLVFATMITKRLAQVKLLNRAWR
Outline: as §1

AMBRA1 = target: T2, AMBRA1 (human, UniProt Q9C0C7 1-1298, limits assumed)
T2 sequence (looked up): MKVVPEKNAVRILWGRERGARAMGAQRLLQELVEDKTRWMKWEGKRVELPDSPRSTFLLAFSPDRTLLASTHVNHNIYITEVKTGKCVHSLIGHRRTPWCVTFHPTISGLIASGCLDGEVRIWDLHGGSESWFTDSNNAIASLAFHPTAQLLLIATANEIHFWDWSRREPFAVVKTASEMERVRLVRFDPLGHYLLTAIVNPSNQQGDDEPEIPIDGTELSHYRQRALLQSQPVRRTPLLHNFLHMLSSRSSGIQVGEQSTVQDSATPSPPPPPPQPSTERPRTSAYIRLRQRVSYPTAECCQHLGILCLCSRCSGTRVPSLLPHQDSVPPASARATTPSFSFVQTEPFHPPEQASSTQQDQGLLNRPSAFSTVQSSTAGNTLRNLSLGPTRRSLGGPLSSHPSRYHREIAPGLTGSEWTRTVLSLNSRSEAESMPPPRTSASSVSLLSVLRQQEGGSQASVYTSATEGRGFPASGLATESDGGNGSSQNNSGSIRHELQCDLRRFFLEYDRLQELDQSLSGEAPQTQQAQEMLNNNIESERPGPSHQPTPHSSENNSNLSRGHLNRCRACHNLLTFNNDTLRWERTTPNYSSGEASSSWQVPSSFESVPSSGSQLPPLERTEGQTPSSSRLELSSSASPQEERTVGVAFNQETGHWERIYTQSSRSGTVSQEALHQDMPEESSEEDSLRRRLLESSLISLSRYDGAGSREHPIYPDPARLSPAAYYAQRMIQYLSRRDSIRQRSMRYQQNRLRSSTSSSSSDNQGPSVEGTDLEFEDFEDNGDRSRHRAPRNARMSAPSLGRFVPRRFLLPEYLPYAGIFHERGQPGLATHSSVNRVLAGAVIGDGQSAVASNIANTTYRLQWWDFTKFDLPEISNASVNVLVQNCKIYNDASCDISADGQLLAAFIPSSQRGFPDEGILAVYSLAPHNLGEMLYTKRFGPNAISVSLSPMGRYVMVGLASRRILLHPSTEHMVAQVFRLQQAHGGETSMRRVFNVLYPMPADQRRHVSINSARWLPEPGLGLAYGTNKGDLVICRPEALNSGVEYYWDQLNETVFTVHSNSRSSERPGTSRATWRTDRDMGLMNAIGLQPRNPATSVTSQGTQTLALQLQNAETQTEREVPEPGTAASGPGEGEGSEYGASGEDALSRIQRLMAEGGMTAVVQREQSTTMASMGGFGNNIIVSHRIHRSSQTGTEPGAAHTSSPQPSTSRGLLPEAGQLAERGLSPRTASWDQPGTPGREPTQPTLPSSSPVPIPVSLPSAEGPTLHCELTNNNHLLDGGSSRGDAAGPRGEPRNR
Outline: as §1

Measured: binding result

Chain of VPS13A (Q96RL7 whole entry, the tested form may be a part): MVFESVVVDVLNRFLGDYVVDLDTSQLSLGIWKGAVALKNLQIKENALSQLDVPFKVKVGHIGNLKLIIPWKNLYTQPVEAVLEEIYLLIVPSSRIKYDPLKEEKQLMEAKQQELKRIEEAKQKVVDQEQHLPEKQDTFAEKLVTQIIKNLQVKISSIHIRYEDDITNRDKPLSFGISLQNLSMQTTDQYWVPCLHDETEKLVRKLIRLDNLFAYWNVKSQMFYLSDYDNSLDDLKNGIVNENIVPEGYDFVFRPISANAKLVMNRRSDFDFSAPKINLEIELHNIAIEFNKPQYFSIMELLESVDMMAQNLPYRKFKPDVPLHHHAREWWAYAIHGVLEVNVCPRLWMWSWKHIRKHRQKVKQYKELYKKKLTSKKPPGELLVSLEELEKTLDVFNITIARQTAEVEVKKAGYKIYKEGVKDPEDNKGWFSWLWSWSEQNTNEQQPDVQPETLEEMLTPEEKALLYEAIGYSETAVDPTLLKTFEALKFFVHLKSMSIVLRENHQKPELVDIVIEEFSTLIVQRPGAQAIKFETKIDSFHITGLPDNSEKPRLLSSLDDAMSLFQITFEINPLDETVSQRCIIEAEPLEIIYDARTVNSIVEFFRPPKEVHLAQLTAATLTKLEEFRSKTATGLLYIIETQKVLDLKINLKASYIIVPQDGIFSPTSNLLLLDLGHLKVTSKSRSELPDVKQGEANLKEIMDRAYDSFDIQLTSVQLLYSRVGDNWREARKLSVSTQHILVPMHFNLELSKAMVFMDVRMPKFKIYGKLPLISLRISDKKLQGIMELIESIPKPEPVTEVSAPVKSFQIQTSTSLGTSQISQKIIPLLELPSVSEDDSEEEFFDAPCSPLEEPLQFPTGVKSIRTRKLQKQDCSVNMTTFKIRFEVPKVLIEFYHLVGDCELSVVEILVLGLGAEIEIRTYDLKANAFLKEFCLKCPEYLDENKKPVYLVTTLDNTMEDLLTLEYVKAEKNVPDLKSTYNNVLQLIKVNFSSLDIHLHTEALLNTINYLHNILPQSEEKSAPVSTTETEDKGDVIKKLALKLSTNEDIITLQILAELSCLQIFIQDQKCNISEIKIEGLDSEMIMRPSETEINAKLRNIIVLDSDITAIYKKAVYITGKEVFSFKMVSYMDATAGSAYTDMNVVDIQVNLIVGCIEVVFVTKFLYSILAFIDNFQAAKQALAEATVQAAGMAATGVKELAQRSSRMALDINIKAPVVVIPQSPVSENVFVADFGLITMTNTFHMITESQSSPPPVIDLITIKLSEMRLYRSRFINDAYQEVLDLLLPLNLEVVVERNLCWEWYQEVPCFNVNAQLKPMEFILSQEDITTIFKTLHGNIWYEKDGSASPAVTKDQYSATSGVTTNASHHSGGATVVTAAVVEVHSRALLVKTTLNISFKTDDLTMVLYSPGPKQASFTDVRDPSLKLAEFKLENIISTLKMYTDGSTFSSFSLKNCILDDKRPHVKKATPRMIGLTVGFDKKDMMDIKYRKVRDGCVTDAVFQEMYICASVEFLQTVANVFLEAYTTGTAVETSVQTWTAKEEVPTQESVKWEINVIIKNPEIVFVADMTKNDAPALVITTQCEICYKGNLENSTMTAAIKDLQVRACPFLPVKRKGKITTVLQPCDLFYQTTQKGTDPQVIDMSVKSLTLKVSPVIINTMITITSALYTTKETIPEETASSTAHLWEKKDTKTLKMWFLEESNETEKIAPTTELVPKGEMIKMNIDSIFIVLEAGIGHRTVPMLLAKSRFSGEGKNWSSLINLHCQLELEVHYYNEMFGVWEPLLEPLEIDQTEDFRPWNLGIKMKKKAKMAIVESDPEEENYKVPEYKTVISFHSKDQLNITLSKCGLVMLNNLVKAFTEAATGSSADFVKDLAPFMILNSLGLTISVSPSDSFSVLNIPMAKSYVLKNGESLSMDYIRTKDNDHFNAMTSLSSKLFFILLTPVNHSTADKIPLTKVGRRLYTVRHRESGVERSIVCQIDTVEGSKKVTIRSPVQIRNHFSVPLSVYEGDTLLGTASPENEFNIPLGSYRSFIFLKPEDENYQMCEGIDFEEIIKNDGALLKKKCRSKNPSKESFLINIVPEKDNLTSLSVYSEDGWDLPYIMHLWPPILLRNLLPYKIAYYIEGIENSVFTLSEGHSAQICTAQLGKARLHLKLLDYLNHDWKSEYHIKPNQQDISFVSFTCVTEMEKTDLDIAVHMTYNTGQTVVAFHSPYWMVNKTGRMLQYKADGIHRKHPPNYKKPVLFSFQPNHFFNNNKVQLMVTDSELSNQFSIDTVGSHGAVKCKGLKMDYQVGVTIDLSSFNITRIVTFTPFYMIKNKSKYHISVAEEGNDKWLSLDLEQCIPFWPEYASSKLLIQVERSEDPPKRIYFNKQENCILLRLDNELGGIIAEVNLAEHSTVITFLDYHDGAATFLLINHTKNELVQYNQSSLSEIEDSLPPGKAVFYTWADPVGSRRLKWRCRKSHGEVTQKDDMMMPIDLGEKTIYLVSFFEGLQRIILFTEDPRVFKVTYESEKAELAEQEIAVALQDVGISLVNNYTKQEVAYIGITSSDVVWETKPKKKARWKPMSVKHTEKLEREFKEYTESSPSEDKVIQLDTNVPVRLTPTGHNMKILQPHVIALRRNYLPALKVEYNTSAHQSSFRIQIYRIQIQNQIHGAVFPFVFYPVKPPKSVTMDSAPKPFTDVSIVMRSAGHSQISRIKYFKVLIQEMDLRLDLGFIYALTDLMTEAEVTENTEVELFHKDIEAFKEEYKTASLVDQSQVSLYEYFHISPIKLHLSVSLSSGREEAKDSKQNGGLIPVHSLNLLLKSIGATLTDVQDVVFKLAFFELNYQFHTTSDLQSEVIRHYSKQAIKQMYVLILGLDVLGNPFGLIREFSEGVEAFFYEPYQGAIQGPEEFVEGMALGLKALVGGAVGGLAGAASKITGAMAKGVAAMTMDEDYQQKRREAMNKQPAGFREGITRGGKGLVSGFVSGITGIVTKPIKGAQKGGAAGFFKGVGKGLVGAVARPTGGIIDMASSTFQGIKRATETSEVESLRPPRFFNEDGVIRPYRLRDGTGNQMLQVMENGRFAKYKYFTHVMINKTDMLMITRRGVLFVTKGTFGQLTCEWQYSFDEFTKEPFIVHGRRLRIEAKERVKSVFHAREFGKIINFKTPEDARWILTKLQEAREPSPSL

B1: LZTR1-FLAG (other, human, UniProt Q8N653 1-840, looked up)
chain: MAGPGSTGGQIGAAALAGGARSKVAPSVDFDHSCSDSVEYLTLNFGPFETVHRWRRLPPCDEFVGARRSKHTVVAYKDAIYVFGGDNGKTMLNDLLRFDVKDCSWCRAFTTGTPPAPRYHHSAVVYGSSMFVFGGYTGDIYSNSNLKNKNDLFEYKFATGQWTEWKIEGRLPVARSAHGATVYSDKLWIFAGYDGNARLNDMWTIGLQDRELTCWEEVAQSGEIPPSCCNFPVAVCRDKMFVFSGQSGAKITNNLFQFEFKDKTWTRIPTEHLLRGSPPPPQRRYGHTMVAFDRHLYVFGGAADNTLPNELHCYDVDFQTWEVVQPSSDSEVGGAEVPERACASEEVPTLTYEERVGFKKSRDVFGLDFGTTSAKQPTQPASELPSGRLFHAAAVISDAMYIFGGTVDNNIRSGEMYRFQFSCYPKCTLHEDYGRLWESRQFCDVEFVLGEKEECVQGHVAIVTARSRWLRRKITQARERLAQKLEQEAAPVPREAPGVAAGGARPPLLHVAIREAEARPFEVLMQFLYTDKIKYPRKGHVEDVLLIMDVYKLALSFQLCRLEQLCRQYIEASVDLQNVLVVCESAARLQLSQLKEHCLNFVVKESHFNQVIMMKEFERLSSPLIVEIVRRKQQPPPRTPLDQPVDIGTSLIQDMKAYLEGAGAEFCDITLLLDGHPRPAHKAILAARSSYFEAMFRSFMPEDGQVNISIGEMVPSRQAFESMLRYIYYGEVNMPPEDSLYLFAAPYYYGFYNNRLQAYCKQNLEMNVTVQNVLQILEAADKTQALDMKRHCLHIIVHQFTKVSKLPTLRSLSQQLLLDIIDSLASHISDKQCAELGADI
notes: Expressed in HEK 293T, HeLa or U87 cells; used as cell lysate; also called LZTR1 wild type-FLAG; LZTR1 WT; not shown: FLAG tag at the C-terminus
binds: all assays above
